Measured values taken from IntAct's records for PubMed 29263825.

B1: Cohesin subunit SA-2 (Homo sapiens), Q8N3U4 (parent)
chain: MIAAPEIPTDFNLLQESETHFSSDTDFEDIEGKNQKQGKGKTCKKGKKGPAEKGKGGNGGGKPPSGPNRMNGHHQQNGVENMMLFEVVKMGKSAMQSVVDDWIESYKHDRDIALLDLINFFIQCSGCKGVVTAEMFRHMQNSEIIRKMTEEFDEDSGDYPLTMAGPQWKKFKSSFCEFIGVLVRQCQYSIIYDEYMMDTVISLLTGLSDSQVRAFRHTSTLAAMKLMTALVNVALNLSINMDNTQRQYEAERNKMIGKRANERLELLLQKRKELQENQDEIENMMNAIFKGVFVHRYRDAIAEIRAICIEEIGIWMKMYSDAFLNDSYLKYVGWTMHDKQGEVRLKCLTALQGLYYNKELNSKLELFTSRFKDRIVSMTLDKEYDVAVQAIKLLTLVLQSSEEVLTAEDCENVYHLVYSAHRPVAVAAGEFLYKKLFSRRDPEEDGMMKRRGRQGPNANLVKTLVFFFLESELHEHAAYLVDSMWDCATELLKDWECMNSLLLEEPLSGEEALTDRQESALIEIMLCTIRQAAECHPPVGRGTGKRVLTAKEKKTQLDDRTKITELFAVALPQLLAKYSVDAEKVTNLLQLPQYFDLEIYTTGRLEKHLDALLRQIRNIVEKHTDTDVLEACSKTYHALCNEEFTIFNRVDISRSQLIDELADKFNRLLEDFLQEGEEPDEDDAYQVLSTLKRITAFHNAHDLSKWDLFACNYKLLKTGIENGDMPEQIVIHALQCTHYVILWQLAKITESSSTKEDLLRLKKQMRVFCQICQHYLTNVNTTVKEQAFTILCDILMIFSHQIMSGGRDMLEPLVYTPDSSLQSELLSFILDHVFIEQDDDNNSADGQQEDEASKIEALHKRRNLLAAFCKLIVYTVVEMNTAADIFKQYMKYYNDYGDIIKETMSKTRQIDKIQCAKTLILSLQQLFNEMIQENGYNFDRSSSTFSGIKELARRFALTFGLDQLKTREAIAMLHKDGIEFAFKEPNPQGESHPPLNLAFLDILSEFSSKLLRQDKRTVYVYLEKFMTFQMSLRREDVWLPLMSYRNSLLAGGDDDTMSVISGISSRGSTVRSKKSKPSTGKRKVVEGMQLSLTEESSSSDSMWLSREQTLHTPVMMQTPQLTSTIMREPKRLRPEDSFMSVYPMQTEHHQTPLDYNRRGTSLMEDDEEPIVEDVMMSSEGRIEDLNEGMDFDTMDIDLPPSKNRRERTELKPDFFDPASIMDESVLGVSMF
partner: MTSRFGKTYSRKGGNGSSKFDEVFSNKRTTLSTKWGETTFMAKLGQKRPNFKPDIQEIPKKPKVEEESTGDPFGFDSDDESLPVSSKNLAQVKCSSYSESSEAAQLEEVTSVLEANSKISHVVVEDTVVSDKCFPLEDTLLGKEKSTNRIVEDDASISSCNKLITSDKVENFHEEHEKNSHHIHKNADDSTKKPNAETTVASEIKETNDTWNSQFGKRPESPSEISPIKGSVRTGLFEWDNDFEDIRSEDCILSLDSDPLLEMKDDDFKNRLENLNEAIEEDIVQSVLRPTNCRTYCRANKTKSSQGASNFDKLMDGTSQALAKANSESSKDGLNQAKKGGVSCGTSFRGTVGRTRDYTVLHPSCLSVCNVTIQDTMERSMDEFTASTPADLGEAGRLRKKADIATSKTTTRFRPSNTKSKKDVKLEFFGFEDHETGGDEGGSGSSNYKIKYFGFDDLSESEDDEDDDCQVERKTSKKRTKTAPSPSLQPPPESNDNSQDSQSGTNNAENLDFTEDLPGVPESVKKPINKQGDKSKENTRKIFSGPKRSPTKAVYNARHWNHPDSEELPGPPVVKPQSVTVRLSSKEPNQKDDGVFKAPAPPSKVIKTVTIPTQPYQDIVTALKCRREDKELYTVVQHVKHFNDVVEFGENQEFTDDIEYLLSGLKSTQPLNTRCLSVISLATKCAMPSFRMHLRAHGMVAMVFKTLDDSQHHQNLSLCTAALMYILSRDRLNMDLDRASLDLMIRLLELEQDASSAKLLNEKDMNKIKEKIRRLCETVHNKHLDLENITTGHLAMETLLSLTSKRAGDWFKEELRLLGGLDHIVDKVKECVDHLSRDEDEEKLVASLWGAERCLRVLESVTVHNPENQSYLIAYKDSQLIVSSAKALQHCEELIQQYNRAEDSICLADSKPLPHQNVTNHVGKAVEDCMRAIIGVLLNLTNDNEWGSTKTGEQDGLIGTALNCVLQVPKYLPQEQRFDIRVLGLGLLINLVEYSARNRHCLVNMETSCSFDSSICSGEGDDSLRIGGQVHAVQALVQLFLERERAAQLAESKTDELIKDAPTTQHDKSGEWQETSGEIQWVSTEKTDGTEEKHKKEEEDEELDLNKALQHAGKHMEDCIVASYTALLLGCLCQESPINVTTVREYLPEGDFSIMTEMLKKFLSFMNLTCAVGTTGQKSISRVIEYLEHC
B2: Cohesin subunit SA-2 (Homo sapiens), Q8N3U4 (parent)
chain: B1 chain
B3: Cohesin subunit SA-2 (Homo sapiens), Q8N3U4 (parent)
chain: B1 chain
partner: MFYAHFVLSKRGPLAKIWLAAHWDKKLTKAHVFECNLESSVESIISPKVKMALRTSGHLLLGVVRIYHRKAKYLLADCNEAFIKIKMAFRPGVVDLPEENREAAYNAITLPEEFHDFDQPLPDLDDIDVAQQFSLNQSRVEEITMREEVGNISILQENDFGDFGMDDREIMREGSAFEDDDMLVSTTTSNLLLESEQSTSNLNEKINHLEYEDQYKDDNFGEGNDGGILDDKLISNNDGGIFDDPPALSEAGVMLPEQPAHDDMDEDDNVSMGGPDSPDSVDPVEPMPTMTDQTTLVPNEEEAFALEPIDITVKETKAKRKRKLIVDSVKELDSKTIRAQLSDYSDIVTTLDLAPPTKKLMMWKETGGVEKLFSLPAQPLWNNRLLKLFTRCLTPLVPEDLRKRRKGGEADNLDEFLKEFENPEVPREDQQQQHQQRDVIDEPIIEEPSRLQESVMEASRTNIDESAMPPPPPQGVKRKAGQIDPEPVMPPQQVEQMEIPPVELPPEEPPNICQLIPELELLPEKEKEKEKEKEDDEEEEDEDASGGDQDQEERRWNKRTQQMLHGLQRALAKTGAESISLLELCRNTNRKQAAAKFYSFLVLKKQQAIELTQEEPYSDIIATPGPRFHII

Variants of: B1
Settings: with wapl_human WAPL

Row | effect of a mutation on the interaction | Variant
1 | decreasing interaction | K330E
2 | with no effect | S327N

Variants of: B2
Settings: with sgo1_human SGO1, Q5FBB7
Sequence of sgo1_human SGO1, Q5FBB7 (Q5FBB7 whole entry): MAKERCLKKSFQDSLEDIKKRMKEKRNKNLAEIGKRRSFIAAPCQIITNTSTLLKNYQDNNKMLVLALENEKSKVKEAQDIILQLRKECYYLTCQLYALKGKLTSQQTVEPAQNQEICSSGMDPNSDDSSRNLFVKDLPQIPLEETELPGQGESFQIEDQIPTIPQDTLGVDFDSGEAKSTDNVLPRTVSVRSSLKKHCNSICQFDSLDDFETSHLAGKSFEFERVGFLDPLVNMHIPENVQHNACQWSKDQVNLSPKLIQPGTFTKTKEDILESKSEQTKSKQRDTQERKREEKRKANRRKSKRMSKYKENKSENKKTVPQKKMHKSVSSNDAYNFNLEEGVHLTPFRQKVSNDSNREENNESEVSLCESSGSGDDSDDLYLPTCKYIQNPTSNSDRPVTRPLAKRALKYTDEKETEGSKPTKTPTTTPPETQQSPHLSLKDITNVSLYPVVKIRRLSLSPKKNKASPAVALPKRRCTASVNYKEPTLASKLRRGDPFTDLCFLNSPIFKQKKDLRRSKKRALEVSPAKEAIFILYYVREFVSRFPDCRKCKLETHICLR

Row | effect of a mutation on the interaction | Variant
3 | disrupting interaction | K330E
4 | decreasing interaction | S327N

Variants of: B3
Settings: with rad21_human RAD21, O60216

Row | effect of a mutation on the interaction | Variant
5 | with no effect | S327N
